According to patent EP1270739A1:
Values joined by “and” are separate entries in the source; they are usually repeats but may differ in a detail not shown here. Identical values can stand only once.

Legend:
[1] = biological target: purified human placental alkaline phosphatase (hPLAP, SIGMA) (human) (UniProt P05187); assay: ELISA, plate coated with purified hPLAP; mAb 64 ng/ml in PBS, diluted 1:64; anti-mouse-HRP, TMB
[2] = biological target: purified human placental alkaline phosphatase (hPLAP, SIGMA) (human) (UniProt P05187); assay: ELISA, plate coated with purified hPLAP; mAb 64 ng/ml in PBS, diluted 1:16; anti-mouse-HRP, TMB
[3] = biological target: purified human placental alkaline phosphatase (hPLAP, SIGMA) (human) (UniProt P05187); assay: ELISA, plate coated with purified hPLAP; mAb 64 ng/ml in PBS, undiluted; anti-mouse-HRP, TMB
[4] = biological target: purified human placental alkaline phosphatase (hPLAP, SIGMA) (human) (UniProt P05187); assay: ELISA, plate coated with purified hPLAP; mAb 64 ng/ml in PBS, diluted 1:2; anti-mouse-HRP, TMB
[5] = biological target: purified human placental alkaline phosphatase (hPLAP, SIGMA) (human) (UniProt P05187); assay: ELISA, plate coated with purified hPLAP; mAb 64 ng/ml spiked in negative serum, diluted 1:32; anti-mouse-HRP, TMB
[6] = biological target: purified human placental alkaline phosphatase (hPLAP, SIGMA) (human) (UniProt P05187); assay: ELISA, plate coated with purified hPLAP; mAb 64 ng/ml in PBS, diluted 1:8; anti-mouse-HRP, TMB
[7] = biological target: purified human placental alkaline phosphatase (hPLAP, SIGMA) (human) (UniProt P05187); assay: ELISA, plate coated with purified hPLAP; mAb 64 ng/ml spiked in negative serum, diluted 1:2; anti-mouse-HRP, TMB
[8] = biological target: purified human placental alkaline phosphatase (hPLAP, SIGMA) (human) (UniProt P05187); assay: ELISA, plate coated with purified hPLAP; mAb 64 ng/ml spiked in negative serum, diluted 1:8; anti-mouse-HRP, TMB
[9] = biological target: purified human placental alkaline phosphatase (hPLAP, SIGMA) (human) (UniProt P05187); assay: ELISA, plate coated with purified hPLAP; mAb 64 ng/ml spiked in negative serum, diluted 1:64; anti-mouse-HRP, TMB
[10] = biological target: purified human placental alkaline phosphatase (hPLAP, SIGMA) (human) (UniProt P05187); assay: ELISA, plate coated with purified hPLAP; row labelled '0' (not explained, presumably no sample, blank); anti-mouse-HRP, TMB
[11] = biological target: purified human placental alkaline phosphatase (hPLAP, SIGMA) (human) (UniProt P05187); assay: ELISA, plate coated with purified hPLAP; mAb 64 ng/ml spiked in negative serum, diluted 1:4; anti-mouse-HRP, TMB
[12] = biological target: purified human placental alkaline phosphatase (hPLAP, SIGMA) (human) (UniProt P05187); assay: ELISA, plate coated with purified hPLAP; mAb 64 ng/ml in PBS, diluted 1:4; anti-mouse-HRP, TMB
[13] = biological target: purified human placental alkaline phosphatase (hPLAP, SIGMA) (human) (UniProt P05187); assay: ELISA, plate coated with purified hPLAP; mAb 64 ng/ml in PBS, diluted 1:32; anti-mouse-HRP, TMB
[14] = biological target: purified human placental alkaline phosphatase (hPLAP, SIGMA) (human) (UniProt P05187); assay: ELISA, plate coated with purified hPLAP; mAb 64 ng/ml spiked in negative serum, diluted 1:16; anti-mouse-HRP, TMB
[15] = biological target: purified human placental alkaline phosphatase (hPLAP, SIGMA) (human) (UniProt P05187); assay: ELISA, plate coated with purified hPLAP; mAb 64 ng/ml spiked in negative serum, undiluted; anti-mouse-HRP, TMB

UniProt P05187, sequence (P05187 23-506 limits assumed): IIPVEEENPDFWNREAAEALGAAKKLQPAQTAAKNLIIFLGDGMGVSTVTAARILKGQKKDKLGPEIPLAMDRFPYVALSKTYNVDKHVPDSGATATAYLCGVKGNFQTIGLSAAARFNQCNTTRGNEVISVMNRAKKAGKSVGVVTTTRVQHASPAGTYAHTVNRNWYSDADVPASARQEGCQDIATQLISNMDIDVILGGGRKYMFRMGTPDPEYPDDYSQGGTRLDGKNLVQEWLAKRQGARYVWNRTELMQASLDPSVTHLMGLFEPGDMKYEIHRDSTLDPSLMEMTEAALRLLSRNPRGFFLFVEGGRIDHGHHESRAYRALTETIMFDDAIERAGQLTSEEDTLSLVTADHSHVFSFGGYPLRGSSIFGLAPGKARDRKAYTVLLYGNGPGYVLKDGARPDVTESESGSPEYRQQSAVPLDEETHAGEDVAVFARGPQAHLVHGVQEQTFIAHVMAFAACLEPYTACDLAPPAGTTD

| absorbance at 450 nm [1] [absorbance] | absorbance at 450 nm [2] [absorbance] | absorbance at 450 nm [3] [absorbance] | absorbance at 450 nm [4] [absorbance] | absorbance at 450 nm [5] [absorbance] | absorbance at 450 nm [6] [absorbance] | absorbance at 450 nm [7] [absorbance] | absorbance at 450 nm [8] [absorbance] | absorbance at 450 nm [9] [absorbance] | absorbance at 450 nm [10] | absorbance at 450 nm [11] [absorbance] | absorbance at 450 nm [12] [absorbance] | absorbance at 450 nm [13] [absorbance] | absorbance at 450 nm [14] [absorbance] | absorbance at 450 nm [15] [absorbance] | Substance |
| --- | --- | --- | --- | --- | --- | --- | --- | --- | --- | --- | --- | --- | --- | --- | --- |
| 0.047 | 0.169 | 0.486 | 0.487 | 0.071 | 0.282 | 0.439 | 0.209 | 0.042 | 0.007 absorbance and 0.009 absorbance | 0.341 | 0.424 | 0.091 | 0.123 | 0.546 | mouse monoclonal antibody to PLAP (clone 8B6, Sigma Immunochemicals) |
| – | – | – | – | – | – | – | – | – | 0.005 absorbance | – | – | – | – | – | serum of mice injected with saline (negative control serum) |
